Results from publication PMC9482650, “Quantitative fragmentomics allow affinity mapping of interactomes” (Nature Communications, 2022).
Blank lines part the entries; values can stand above or below the binder they belong to.

What was measured:
Assay in all cases: holdup assay
Parameters in all cases: key: below the threshold = too weak to quantify, mostly under pKd 3.1 to 4
[1] = target: MAST1, Q9Y2H9
[2] = target: MAGI1_2, Q96QZ7
[3] = target: T1, SYNJ2BP, P57105
T1 sequence (P57105 8-110, limits assumed, looked up): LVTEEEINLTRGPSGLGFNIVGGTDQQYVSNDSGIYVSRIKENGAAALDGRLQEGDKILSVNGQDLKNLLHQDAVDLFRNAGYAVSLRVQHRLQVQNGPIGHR

[4] = target: DLG4_2, P78352
Chain of DLG4_2, P78352 (P78352 155-259): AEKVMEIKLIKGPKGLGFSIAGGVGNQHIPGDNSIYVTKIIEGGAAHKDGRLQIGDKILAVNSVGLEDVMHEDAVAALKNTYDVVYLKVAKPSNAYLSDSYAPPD

[5] = target: GORASP1, Q9BQQ3
Chain of GORASP1, Q9BQQ3 (Q9BQQ3 1-208): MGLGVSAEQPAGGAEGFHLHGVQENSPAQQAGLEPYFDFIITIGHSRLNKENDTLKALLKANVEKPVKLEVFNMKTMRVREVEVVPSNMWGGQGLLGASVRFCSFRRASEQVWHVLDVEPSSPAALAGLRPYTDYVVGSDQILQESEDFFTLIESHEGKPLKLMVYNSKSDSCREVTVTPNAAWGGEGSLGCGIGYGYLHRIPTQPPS

[6] = target: T2, DFNB31_3, Q9P202
T2 sequence (Q9P202 811-907, limits assumed, looked up): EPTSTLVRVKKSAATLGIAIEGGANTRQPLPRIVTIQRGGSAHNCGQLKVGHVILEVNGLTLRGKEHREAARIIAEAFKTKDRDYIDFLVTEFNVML

[7] = target: PDZRN4_1, Q6ZMN7
Chain of PDZRN4_1, Q6ZMN7 (Q6ZMN7 213-318): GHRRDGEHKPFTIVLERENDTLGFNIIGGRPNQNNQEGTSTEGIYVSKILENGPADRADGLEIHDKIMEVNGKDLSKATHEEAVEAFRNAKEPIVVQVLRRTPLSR

[8] = target: GORASP2, Q9H8Y8
[9] = target: T3, MPP2, Q14168
T3 sequence (Q14168 180-250, limits assumed, looked up): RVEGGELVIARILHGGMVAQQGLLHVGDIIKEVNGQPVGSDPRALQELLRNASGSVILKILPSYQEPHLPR

[10] = target: MAGI2_3, Q86UL8
Chain of MAGI2_3, Q86UL8 (Q86UL8 600-682): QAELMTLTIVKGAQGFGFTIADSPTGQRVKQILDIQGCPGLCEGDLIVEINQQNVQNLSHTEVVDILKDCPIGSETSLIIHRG

[11] = target: DLG4_1, P78352
Chain of DLG4_1, P78352 (P78352 62-152): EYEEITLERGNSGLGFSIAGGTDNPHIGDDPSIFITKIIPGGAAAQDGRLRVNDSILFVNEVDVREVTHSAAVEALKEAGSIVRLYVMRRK

[12] = target: T4, LNX2_2, Q8N448
T4 sequence (Q8N448 334-432, limits assumed, looked up): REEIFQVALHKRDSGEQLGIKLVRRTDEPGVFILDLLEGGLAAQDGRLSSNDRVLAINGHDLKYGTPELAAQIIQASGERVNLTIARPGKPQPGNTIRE

[13] = target: TJP1_2, Q07157
Chain of TJP1_2, Q07157 (Q07157 181-274): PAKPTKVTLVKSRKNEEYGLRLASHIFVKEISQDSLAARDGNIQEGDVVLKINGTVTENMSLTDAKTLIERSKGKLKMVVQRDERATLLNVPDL

[14] = target: T5, RHPN1, Q8TCX5
T5 sequence (Q8TCX5 508-602, limits assumed, looked up): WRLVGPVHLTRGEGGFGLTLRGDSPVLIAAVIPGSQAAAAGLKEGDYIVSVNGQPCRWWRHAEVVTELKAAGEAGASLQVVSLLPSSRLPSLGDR

[15] = target: SCRIB_1, Q14160
Chain of SCRIB_1, Q14160 (Q14160 718-814): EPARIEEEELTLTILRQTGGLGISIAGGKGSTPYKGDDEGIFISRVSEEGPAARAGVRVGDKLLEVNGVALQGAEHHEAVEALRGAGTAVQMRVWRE

[16] = target: FRMPD3, Q5JV73
Chain of FRMPD3, Q5JV73 (Q5JV73 12-100): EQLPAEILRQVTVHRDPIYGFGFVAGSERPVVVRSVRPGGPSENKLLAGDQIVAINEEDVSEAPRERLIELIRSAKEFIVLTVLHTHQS

[17] = target: T6, NHERF3_4, Q5T2W1
T6 sequence (Q5T2W1 373-468, limits assumed, looked up): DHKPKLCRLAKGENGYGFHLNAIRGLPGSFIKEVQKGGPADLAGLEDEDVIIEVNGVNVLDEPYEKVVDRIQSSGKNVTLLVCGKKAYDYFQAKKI

[18] = target: T7, SHANK1, Q9Y566
T7 sequence (Q9Y566 658-767, limits assumed, looked up): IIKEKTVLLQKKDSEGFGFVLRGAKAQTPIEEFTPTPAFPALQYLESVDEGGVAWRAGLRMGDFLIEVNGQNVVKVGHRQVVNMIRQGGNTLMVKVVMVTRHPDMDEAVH

[19] = target: NHERF2_2, Q15599
Chain of NHERF2_2, Q15599 (Q15599 142-238): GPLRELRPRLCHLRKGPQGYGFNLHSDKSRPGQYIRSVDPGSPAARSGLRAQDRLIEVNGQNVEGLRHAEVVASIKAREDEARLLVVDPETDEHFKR

[20] = target: T8, SNTG1, Q9NSN8
T8 sequence (Q9NSN8 52-150, limits assumed, looked up): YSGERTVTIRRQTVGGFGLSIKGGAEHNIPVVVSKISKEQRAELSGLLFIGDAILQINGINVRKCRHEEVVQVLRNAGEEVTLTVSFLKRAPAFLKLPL

[21] = target: T9, LIN7C, Q9NUP9
T9 sequence (Q9NUP9 88-185, limits assumed, looked up): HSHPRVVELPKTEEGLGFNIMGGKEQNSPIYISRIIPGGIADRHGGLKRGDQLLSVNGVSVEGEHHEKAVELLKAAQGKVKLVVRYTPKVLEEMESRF

[22] = target: LNX1_1, Q8TBB1
Chain of LNX1_1, Q8TBB1 (Q8TBB1 261-371): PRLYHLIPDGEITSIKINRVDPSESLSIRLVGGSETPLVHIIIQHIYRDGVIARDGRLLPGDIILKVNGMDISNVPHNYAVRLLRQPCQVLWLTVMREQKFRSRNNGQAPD

[23] = target: Inadl_8, Q8NI35
Chain of Inadl_8, Q8NI35 (Q8NI35 1425-1530): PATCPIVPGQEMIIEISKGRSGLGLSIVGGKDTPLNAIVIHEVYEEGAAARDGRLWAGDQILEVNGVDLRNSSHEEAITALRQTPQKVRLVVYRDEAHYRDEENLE

[24] = target: NHERF4_2, Q86UT5
Chain of NHERF4_2, Q86UT5 (Q86UT5 220-308): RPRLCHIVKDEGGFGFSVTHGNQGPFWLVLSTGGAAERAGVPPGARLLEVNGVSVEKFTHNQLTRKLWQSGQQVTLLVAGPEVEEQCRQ

[25] = target: PTPN3, P26045
Chain of PTPN3, P26045 (P26045 505-587): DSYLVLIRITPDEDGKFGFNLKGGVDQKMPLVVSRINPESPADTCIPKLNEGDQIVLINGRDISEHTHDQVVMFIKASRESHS

[26] = target: T10, DLG3_2, Q92796
T10 sequence (Q92796 221-321, limits assumed, looked up): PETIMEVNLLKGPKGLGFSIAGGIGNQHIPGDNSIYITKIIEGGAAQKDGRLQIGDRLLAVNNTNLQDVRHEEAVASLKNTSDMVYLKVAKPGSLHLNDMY

[27] = target: T11, NHERF3_1, Q5T2W1
T11 sequence (Q5T2W1 4-100, limits assumed, looked up): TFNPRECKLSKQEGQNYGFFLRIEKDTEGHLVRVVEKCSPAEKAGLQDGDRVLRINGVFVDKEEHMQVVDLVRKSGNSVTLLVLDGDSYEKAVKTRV

[28] = plain residues with an end cap or a label only (N-terminal biotin on a linker: ttds)
[29] = plain residues with an end cap or a label only (N-terminal biotin on a linker: ado-ado)

Chain of MAGI1_2, Q96QZ7 (Q96QZ7 456-580): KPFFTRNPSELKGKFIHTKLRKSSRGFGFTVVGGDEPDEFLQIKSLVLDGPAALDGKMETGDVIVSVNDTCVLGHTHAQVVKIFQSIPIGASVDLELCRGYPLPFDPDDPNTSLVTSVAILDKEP
Chain of MAST1, Q9Y2H9 (Q9Y2H9 962-1065): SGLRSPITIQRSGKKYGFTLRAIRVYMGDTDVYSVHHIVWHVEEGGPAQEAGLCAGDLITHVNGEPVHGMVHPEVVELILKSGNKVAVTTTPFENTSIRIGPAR

pKd [1, 28]: below the threshold
pKd [2, 28]: below the threshold
pKd [3, 28]: 5.08
pKd [4, 28]: 4.6
pKd [5, 28]: below the threshold
pKd [6, 28]: below the threshold
pKd [7, 28]: below the threshold
pKd [8, 28]: below the threshold
pKd [9, 28]: below the threshold
pKd [10, 28]: below the threshold
pKd [11, 28]: 4.32
pKd [12, 28]: below the threshold
pKd [13, 28]: below the threshold
pKd [14, 28]: 4.09
pKd [15, 28]: 4.75
pKd [16, 28]: below the threshold
pKd [17, 28]: below the threshold
pKd [18, 28]: below the threshold
pKd [19, 28]: below the threshold
pKd [20, 28]: 4.79
pKd [21, 28]: below the threshold
pKd [22, 28]: 3.57
pKd [23, 28]: 3.68
pKd [24, 28]: below the threshold
pKd [25, 28]: 4.34
pKd [26, 28]: 4.54
pKd [27, 28]: 3.59
Binder: PKRPFVESNV [TANC2, Q9HCD6]

pKd [1, 29]: 4.66
pKd [2, 29]: below the threshold
pKd [3, 29]: 3.95
pKd [4, 29]: 3.5
pKd [5, 29]: below the threshold
pKd [6, 29]: below the threshold
pKd [7, 29]: 4.61
pKd [8, 29]: below the threshold
pKd [9, 29]: below the threshold
pKd [10, 29]: 3.48
pKd [11, 29]: below the threshold
pKd [12, 29]: below the threshold
pKd [13, 29]: below the threshold
pKd [14, 29]: 4.61
pKd [15, 29]: below the threshold
pKd [16, 29]: below the threshold
pKd [17, 29]: below the threshold
pKd [18, 29]: 3.87
pKd [19, 29]: 4.67
pKd [20, 29]: 3.62
pKd [21, 29]: 3.63
pKd [22, 29]: 3.88
pKd [23, 29]: below the threshold
pKd [24, 29]: below the threshold
pKd [25, 29]: 5.22
pKd [26, 29]: below the threshold
pKd [27, 29]: 5.06
Binder: GFGEERESIL [KIDINS220, Q9ULH0]

pKd [1, 28]: 5.26
pKd [2, 28]: 4.15
pKd [3, 28]: 5.4
pKd [4, 28]: 4.78
pKd [5, 28]: below the threshold
pKd [6, 28]: below the threshold
pKd [7, 28]: 5.47
pKd [8, 28]: 3.98
pKd [9, 28]: below the threshold
pKd [10, 28]: below the threshold
pKd [11, 28]: 4.29
pKd [12, 28]: below the threshold
pKd [13, 28]: below the threshold
pKd [14, 28]: 5.14
pKd [15, 28]: 5.23
pKd [16, 28]: below the threshold
pKd [17, 28]: below the threshold
pKd [18, 28]: 3.81
pKd [19, 28]: 4.69
pKd [20, 28]: 5.39
pKd [21, 28]: 4.93
pKd [22, 28]: below the threshold
pKd [23, 28]: below the threshold
pKd [24, 28]: below the threshold
pKd [25, 28]: 5.42
pKd [26, 28]: 4.88
pKd [27, 28]: 5.4
Binder: NYWPGKETQL [SLCO1C1, Q9NYB5]
